This is an account of results in article PMC3299919.

The target of this data set is Nucleocapsid protein N (Rift Valley fever virus (strain M12)) (UniProt P21700). The data set is described as follows: FP competition. The note with it: 10 mM HEPES pH 7.3 ([…]) or pH 8 ([…].
Chain of UniProt P21700 (P21700 whole entry): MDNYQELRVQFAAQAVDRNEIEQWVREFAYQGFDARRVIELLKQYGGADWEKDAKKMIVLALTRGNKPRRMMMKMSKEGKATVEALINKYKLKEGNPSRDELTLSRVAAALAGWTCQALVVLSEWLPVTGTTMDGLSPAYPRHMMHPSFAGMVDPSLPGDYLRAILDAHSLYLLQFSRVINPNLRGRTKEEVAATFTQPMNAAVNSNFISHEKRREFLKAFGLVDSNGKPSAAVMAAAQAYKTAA

With “CGUCCCGUAGUGUCGGUACUGAUUGAUGUG [MBE15.3]”, the Ki (usually a dissociation constant, usually derived from enzyme kinetics or from competition with a known ligand) was 200 nM.
